Test results as given in patent US7585638B2, “Test system for measuring the interaction of STAT 6 with NCoA-1” (Boehringer Ingelheim International GmbH, priority 2001, dated 2009).

Assays:
[1] = biological target: T1, interaction of STAT6 and NCoA-1 (Mus musculus, UniProt P70365); experiment: GST pull-down assay of [35S]-labeled NCoA-1 with GST-STAT6-TAD in presence of peptides; assay type: binding, human; details: 100 μg peptide; 4 μg GST-STAT6-TAD; SDS-PAGE and fluorography
T1 construct: made in house; host or cells: E. coli for GST-STAT6-TAD
Experimental: 4 μg GST or GST-STAT6-TAD fusion protein purified from E. coli, are bound to 20 μl glutathione-Sepharose and are incubated with 1.5 μl [^35S]-labeled NCoA-1 in the presence of 100 μg peptide 1, or peptide 2, or peptide 3 respectively, as indicated. Material bound to the glutathione-Sepharose is recovered from the binding reaction, extensively washed and analyzed by SDS-PAGE and fluorography (lanes 2-6). Input control in lane 1 reflects 10% of the total amount of ^35S-labeled NCoA-1 used in the experiments.

GST-STAT6 (aa 677-847) = biological target: T2, GST-STAT6 (aa 677-847) (Homo sapiens, UniProt P42226); experiment: STAT6/NCoA-1-ELISA (His-NCoA-1 bound to coated GST-STAT6); assay type: binding; details: 500 ng GST-STAT6 (677-847) coated, 250 ng His-NCoA-1 (212-463) added; α-Penta-His and α-mouse-HRP; average of three experiments
T2 construct: made in house; host or cells: E. coli
Experimental: The following is an illustration of how an interaction of STAT6 with NCoA-1 can be performed in order to identify a substance which can modulate said interaction.
Substrate solution: dissolve a phosphate citrate buffer tablet (Sigma) in 100 ml water to obtain 0.05 M phosphate citrate buffer pH 5.5. Dissolve a tablet of o-Phenylendiamine dihydrochloride (Sigma) in 30 ml of phosphate citrate buffer in the dark. Prior to use add 30 μl of 30% H2O2. Recombinant Proteins: GST-STAT6 aa 677-847 and His-tagged NCoA-1 aa 212-463 are expressed in E. coli, purified by affinity-chromatografie and dialyzed against 1×PBS according to the art. Sequences of Recombinant Proteins: GST-STAT6 aa 677-847 protein, SEQ ID NO:1 His-tagged NCoA-1 aa 212-463, SEQ ID NO: 3 Antibodies: 1. Antibody: Penta-His, Quiagen (Cat. No. 34660) 2. […] Determine the optical density of each well within 15 minutes, using an ELISA reader set to […]. […]
500 ng of E. coli expressed and affinity purified GST-STAT6 TAD (amino acid, aa 677-847) is coated to 96 well ELISA-plates as indicated. After incubation with 250 ng of E. coli expressed, affinity purified His-NCoA-1 (aa 212-463), bound protein is detected by mouse anti-His-antibody and peroxidase coupled sheep anti-mouse-antibody as indicated. […] Conversion of peroxidase substrate O-phenylenediamine is measured at 492 nm. […]

T1 sequence (P70365 whole entry): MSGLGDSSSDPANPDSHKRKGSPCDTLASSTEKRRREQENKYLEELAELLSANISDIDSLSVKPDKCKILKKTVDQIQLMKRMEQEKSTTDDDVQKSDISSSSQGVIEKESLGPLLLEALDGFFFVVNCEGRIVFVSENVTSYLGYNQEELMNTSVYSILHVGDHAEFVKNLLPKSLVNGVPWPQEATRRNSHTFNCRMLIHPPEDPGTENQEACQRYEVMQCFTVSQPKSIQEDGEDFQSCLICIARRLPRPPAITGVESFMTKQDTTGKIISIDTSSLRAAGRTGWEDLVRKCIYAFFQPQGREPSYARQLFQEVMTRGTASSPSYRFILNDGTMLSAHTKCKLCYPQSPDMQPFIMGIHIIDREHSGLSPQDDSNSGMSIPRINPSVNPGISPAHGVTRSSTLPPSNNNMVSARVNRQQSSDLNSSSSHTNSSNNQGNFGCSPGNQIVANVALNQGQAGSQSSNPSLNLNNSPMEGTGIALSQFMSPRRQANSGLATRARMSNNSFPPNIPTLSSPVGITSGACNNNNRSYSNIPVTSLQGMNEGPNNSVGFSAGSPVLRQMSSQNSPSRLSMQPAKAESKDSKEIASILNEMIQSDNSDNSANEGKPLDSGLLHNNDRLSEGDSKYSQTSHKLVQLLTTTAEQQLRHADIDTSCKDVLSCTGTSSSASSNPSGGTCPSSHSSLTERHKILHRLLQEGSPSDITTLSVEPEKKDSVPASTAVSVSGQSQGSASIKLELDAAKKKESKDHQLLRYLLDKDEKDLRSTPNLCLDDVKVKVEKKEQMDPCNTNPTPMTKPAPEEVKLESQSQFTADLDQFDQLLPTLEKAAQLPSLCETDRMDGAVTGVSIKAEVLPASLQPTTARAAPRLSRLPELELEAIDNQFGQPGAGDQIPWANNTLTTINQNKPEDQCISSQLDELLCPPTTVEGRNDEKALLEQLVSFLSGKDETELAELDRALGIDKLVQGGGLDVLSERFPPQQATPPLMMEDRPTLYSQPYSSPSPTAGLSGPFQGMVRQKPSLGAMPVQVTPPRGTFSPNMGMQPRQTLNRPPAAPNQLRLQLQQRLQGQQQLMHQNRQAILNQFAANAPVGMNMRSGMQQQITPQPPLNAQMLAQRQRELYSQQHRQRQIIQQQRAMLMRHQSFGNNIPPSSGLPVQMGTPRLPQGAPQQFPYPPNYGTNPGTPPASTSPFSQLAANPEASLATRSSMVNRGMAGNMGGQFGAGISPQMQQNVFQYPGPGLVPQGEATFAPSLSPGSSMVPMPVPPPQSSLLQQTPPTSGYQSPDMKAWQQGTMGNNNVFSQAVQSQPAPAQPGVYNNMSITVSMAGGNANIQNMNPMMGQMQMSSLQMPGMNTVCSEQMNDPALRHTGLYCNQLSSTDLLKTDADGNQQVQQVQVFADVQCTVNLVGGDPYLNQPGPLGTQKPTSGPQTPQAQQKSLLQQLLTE
T2 sequence (P42226 with tags, fused parts or gaps): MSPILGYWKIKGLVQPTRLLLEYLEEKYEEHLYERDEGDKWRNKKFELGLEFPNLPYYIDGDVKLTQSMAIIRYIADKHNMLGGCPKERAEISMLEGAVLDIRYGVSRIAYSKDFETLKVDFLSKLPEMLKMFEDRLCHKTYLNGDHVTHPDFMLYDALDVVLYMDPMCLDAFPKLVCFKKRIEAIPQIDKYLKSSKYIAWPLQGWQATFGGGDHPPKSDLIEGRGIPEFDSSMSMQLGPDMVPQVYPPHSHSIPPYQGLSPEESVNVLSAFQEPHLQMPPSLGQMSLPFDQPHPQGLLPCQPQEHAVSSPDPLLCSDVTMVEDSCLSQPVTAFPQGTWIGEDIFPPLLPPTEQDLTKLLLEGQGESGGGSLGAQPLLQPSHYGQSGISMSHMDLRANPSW

Molecule | binding of GST-STAT6-TAD with NCoA-1 in presence of peptide [1] | Extinction 493 nm (GST-STAT6 (aa 677-847))
peptide 3: peptide derived from the STAT6 trans-activation domain, amino acid 830 to 847 (GQSGISMSHMDLRANPSW; UniProt P42226 830-847, looked up, fragment) | does not alter the binding capacity of GST-STAT6-TAD with NCoA-1 significantly | 
peptide 1: peptide derived from the STAT6 trans-activation domain, amino acid 794 to 814, SEQ ID NO: 6, contains LXXLL motif (LLPPTEQDLTKLLLEGQGESG; Part of SEQ ID 5; listed as Homo sapiens) | less binding | 
peptide 2: peptide derived from the STAT6 trans-activation domain, amino acid 817 to 830 (SLGAQPLLQPSHYG; UniProt P42226 817-830, looked up, fragment) | does not alter the binding capacity of GST-STAT6-TAD with NCoA-1 significantly | 
His-NCoA-1: His-tagged NCoA-1 fragment aa 212-463, expressed in E. coli, affinity purified, SEQ ID NO: 3 (protein, His tag) MHHHHHHSSGLVPRGSGMKETAAAKFERQHMDSPDLGTDDDDKAMGYLWIQEACQRYEVMQCFTVSQPKSIQEDGEDFQSCLICIARRLPRPPAITGVESFMTKQDTTGKIISIDTSSLRAAGRTGWEDLVRKCIYAFFQPQGREPSYARQLFQEVMTRGTASSPSYRFILNDGTMLSAHTKCKLCYPQSPDMQPFIMGIHIIDREHSGLSPQDDSNSGMSIPRINPSVNPGISPAHGVTRSSTLPPSNNNMVSARVNRQQSSDLNSSSSHTNSSNNQGNFGCSPGNQIVANVALNQGQAGSLEHHHHHH |  | 0.795
